Measured values reported in patent US20130122013A1 (Eli Lilly, published 2013).
Changes are numbered by the printed parent chain. Each block holds one molecule with its values, some of them ahead of it.

What was measured:
human ferroportin 1 [1] = target: T1, human ferroportin 1 (human, UniProt Q9NP59 1-571); assay: inhibition of binding of 30 nM biotinylated hepcidin to FPN/293 cells, ELISA of lysate; control antibody at 125 nM; mean
T1 sequence: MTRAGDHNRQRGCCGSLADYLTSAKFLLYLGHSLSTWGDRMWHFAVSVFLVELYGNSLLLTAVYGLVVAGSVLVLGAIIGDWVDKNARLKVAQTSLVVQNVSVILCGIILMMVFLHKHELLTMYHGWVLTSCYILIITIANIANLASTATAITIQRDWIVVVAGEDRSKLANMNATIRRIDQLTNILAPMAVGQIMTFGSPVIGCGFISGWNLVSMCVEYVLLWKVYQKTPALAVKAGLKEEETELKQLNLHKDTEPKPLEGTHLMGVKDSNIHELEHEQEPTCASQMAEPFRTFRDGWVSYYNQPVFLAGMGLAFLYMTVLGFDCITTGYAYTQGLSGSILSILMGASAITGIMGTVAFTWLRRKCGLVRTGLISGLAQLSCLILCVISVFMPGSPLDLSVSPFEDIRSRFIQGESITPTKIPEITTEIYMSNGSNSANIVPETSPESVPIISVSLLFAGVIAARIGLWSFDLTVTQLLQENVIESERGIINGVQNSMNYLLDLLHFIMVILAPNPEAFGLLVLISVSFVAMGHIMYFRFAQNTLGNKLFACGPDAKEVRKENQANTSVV

human ferroportin 1 [2] = target: T1, human ferroportin 1; assay: inhibition of binding of 30 nM biotinylated hepcidin to FPN/293 cells, ELISA of lysate; control antibody at 500 nM; mean
human ferroportin 1 [3] = target: T1, human ferroportin 1; assay: inhibition of binding of 30 nM biotinylated hepcidin to FPN/293 cells, ELISA of lysate; control antibody at 7.8 nM; mean
human ferroportin 1 [4] = target: T1, human ferroportin 1; assay: inhibition of binding of 30 nM biotinylated hepcidin to FPN/293 cells, ELISA of lysate; control antibody at 2000 nM; mean
human ferroportin 1 [5] = target: T1, human ferroportin 1; assay: inhibition of binding of 30 nM biotinylated hepcidin to FPN/293 cells, ELISA of lysate; control antibody at 31.25 nM; mean
human ferroportin 1 [6] = target: T1, human ferroportin 1; assay: cell-based or functional assay
[7] = target: T2, human FPN1 C-terminally fused with GFP (human, UniProt Q9NP59 1-571, GFP reporter fused to the C-terminus ("FPN1 is C-terminally fused with GFP"). It is left out because the patent gives no letters for it.); assay: inhibition of binding of 30 nM biotinylated hepcidin to FPN-GFP/293 cells, ELISA of lysate; control antibody at 1.2 uM; mean
T2 sequence: T1 sequence

[8] = target: T2, human FPN1 C-terminally fused with GFP; assay: inhibition of binding of 30 nM biotinylated hepcidin to FPN-GFP/293 cells, ELISA of lysate; control antibody at 6.0 uM; mean
[9] = target: T2, human FPN1 C-terminally fused with GFP; assay: inhibition of binding of 30 nM biotinylated hepcidin to FPN-GFP/293 cells, ELISA of lysate; control antibody at 0.24 uM; mean
[10] = target: T2, human FPN1 C-terminally fused with GFP; assay: inhibition of binding of 30 nM biotinylated hepcidin to FPN-GFP/293 cells, ELISA of lysate; control antibody at 0.048 uM; mean
[11] = target: T2, human FPN1 C-terminally fused with GFP; assay: cell-based or functional assay
rat ferroportin = target: T3, rat ferroportin (rat, UniProt Q923U9 1-570, limits assumed); assay: not described; told in the pharmacokinetics example
T3 sequence (looked up): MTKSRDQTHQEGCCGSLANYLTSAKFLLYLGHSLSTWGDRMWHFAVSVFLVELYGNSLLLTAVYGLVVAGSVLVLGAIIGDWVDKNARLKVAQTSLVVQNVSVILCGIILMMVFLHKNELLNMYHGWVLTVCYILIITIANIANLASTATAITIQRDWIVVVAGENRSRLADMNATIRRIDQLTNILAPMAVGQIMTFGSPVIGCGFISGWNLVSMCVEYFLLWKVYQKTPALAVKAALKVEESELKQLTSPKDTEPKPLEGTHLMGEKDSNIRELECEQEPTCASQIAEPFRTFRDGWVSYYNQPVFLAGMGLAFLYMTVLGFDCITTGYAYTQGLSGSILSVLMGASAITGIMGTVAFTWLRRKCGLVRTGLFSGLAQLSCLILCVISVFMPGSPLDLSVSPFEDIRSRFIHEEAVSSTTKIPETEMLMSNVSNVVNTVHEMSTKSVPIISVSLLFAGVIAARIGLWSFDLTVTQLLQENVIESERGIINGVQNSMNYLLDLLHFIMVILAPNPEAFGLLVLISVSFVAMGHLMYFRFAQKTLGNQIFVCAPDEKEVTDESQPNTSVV

human ferroportin 1 [12] = target: T1, human ferroportin 1; assay: inhibition of binding of 30 nM biotinylated hepcidin to FPN/293 cells, ELISA of lysate; antibody at 125 nM; mean
human ferroportin 1 [13] = target: T1, human ferroportin 1; assay: inhibition of binding of 30 nM biotinylated hepcidin to FPN/293 cells, ELISA of lysate; antibody at 500 nM; mean
human ferroportin 1 [14] = target: T1, human ferroportin 1; assay: inhibition of binding of 30 nM biotinylated hepcidin to FPN/293 cells, ELISA of lysate; antibody at 7.8 nM; mean
human ferroportin 1 [15] = target: T1, human ferroportin 1; assay: inhibition of binding of 30 nM biotinylated hepcidin to FPN/293 cells, ELISA of lysate; antibody at 2000 nM; mean
human ferroportin 1 [16] = target: T1, human ferroportin 1; assay: inhibition of binding of 30 nM biotinylated hepcidin to FPN/293 cells, ELISA of lysate; antibody at 31.25 nM; mean

% Inhibition (human ferroportin 1 [1]): 1.9%
% Inhibition (human ferroportin 1 [2]): -0.7%
% Inhibition (human ferroportin 1 [3]): 2.5%
% Inhibition (human ferroportin 1 [4]): -2.5%
% Inhibition (human ferroportin 1 [5]): 7.9%
Molecule: control IgG (antibody)

% Inhibition of hepcidin-induced ferritin increase in Caco-2 cells, 6.25 µg/mL (human ferroportin 1 [6]): 0%
% Inhibition of hepcidin-induced ferritin increase in Caco-2 cells, 12.5 µg/mL (human ferroportin 1 [6]): 0%
% Inhibition of hepcidin-induced ferritin increase in Caco-2 cells, 25 µg/mL (human ferroportin 1 [6]): 7.2%
% Inhibition of hepcidin-induced ferritin increase in Caco-2 cells, 50 µg/mL (human ferroportin 1 [6]): 0%
% Inhibition of hepcidin-induced ferritin increase in Caco-2 cells, 100 µg/mL (human ferroportin 1 [6]): 3.5%
% Inhibition of hepcidin-induced ferritin increase in Caco-2 cells, 200 µg/mL (human ferroportin 1 [6]): 11.6%
Ferritin (ng)/protein (µg) in hepcidin-treated Caco-2 cells, 6.25 µg/mL (ng ferritin/µg protein) (human ferroportin 1 [6]): 10.4
Ferritin (ng)/protein (µg) in hepcidin-treated Caco-2 cells, 12.5 µg/mL (ng ferritin/µg protein) (human ferroportin 1 [6]): 10
Ferritin (ng)/protein (µg) in hepcidin-treated Caco-2 cells, 25 µg/mL (ng ferritin/µg protein) (human ferroportin 1 [6]): 9.6
Ferritin (ng)/protein (µg) in hepcidin-treated Caco-2 cells, 50 µg/mL (ng ferritin/µg protein) (human ferroportin 1 [6]): 10.1
Ferritin (ng)/protein (µg) in hepcidin-treated Caco-2 cells, 100 µg/mL (ng ferritin/µg protein) (human ferroportin 1 [6]): 9.78
Ferritin (ng)/protein (µg) in hepcidin-treated Caco-2 cells, 200 µg/mL (ng ferritin/µg protein) (human ferroportin 1 [6]): 9.4
% Inhibition [7]: 0.5%
% Inhibition [8]: -3.4%
% Inhibition [9]: -4%
% Inhibition [10]: -11%
Molecule: Mouse IgG1, a negative control (antibody)

Absolute IC50 of inhibition of hepcidin-25-induced internalization and degradation of FPN1-GFP [11]: 5.7 nM
Relative IC50 of inhibition of hepcidin-25-induced internalization and degradation of FPN1-GFP [11]: 4.7 nM
Top % Inhibition of hepcidin-25-induced internalization and degradation of FPN1-GFP [11]: 85.9%
EC50 of inhibition of mature hepcidin induced increase in cellular ferritin, Caco-2 cells (human ferroportin 1 [6]): 37 nM
Percentage inhibition of mature hepcidin induced increase in cellular ferritin, Caco-2 cells, Mab at 2.22E-7 M (human ferroportin 1 [6]): 59.6%
Percentage inhibition of mature hepcidin induced increase in cellular ferritin, Caco-2 cells, Mab at 2.47E-8 M (human ferroportin 1 [6]): 36.2%
Percentage inhibition of mature hepcidin induced increase in cellular ferritin, Caco-2 cells, Mab at 2.7E-9 M (human ferroportin 1 [6]): 24.9%
Percentage inhibition of mature hepcidin induced increase in cellular ferritin, Caco-2 cells, Mab at 3.0E-10 M (human ferroportin 1 [6]): 12%
Percentage inhibition of mature hepcidin induced increase in cellular ferritin, Caco-2 cells, Mab at 6.67E-7 M (human ferroportin 1 [6]): 61.9%
Percentage inhibition of mature hepcidin induced increase in cellular ferritin, Caco-2 cells, Mab at 7.4E-8 M (human ferroportin 1 [6]): 45.6%
Percentage inhibition of mature hepcidin induced increase in cellular ferritin, Caco-2 cells, Mab at 8.0E-9 M (human ferroportin 1 [6]): 28%
Percentage inhibition of mature hepcidin induced increase in cellular ferritin, Caco-2 cells, Mab at 9.0E-10 M (human ferroportin 1 [6]): 19.5%
binding result (rat ferroportin): no binding
% Inhibition (human ferroportin 1 [12]): 59.3%
% Inhibition (human ferroportin 1 [13]): 84.9%
% Inhibition (human ferroportin 1 [14]): 5.4%
% Inhibition (human ferroportin 1 [15]): 95.3%
% Inhibition (human ferroportin 1 [16]): 13.4%
B1: Mab 4A10-3 (antibody, human IgG4 S228P, kappa, F234A L235A, V domains shown)
VH: QVQLVQSGAEVKKPGSSVKVSCKASGYAFTSFLIEWVRQAPGQGLEWMGTSNPRTGGRKYKEKFRGRVTITADKSTSTAYMELSSLRSEDTAVYYCAREFFDYWGQGTTVTVSS
VL: DIQMTQSPSSLSASVGDRVTITCRASKSISKYTAWYQQKPGKAPKLLIYAGSKLHWGVPSRFSGSGSGTDFTLTISSLQPEDFATYYCQQHNEYPYTFGGGTKVEIKR

Absolute IC50 of inhibition of hepcidin-25-induced internalization and degradation of FPN1-GFP [11]: 3.8 nM
Relative IC50 of inhibition of hepcidin-25-induced internalization and degradation of FPN1-GFP [11]: 3.7 nM
Top % Inhibition of hepcidin-25-induced internalization and degradation of FPN1-GFP [11]: 92.6%
EC50 of inhibition of mature hepcidin induced increase in cellular ferritin, Caco-2 cells (human ferroportin 1 [6]): 28 nM
Percentage inhibition of mature hepcidin induced increase in cellular ferritin, Caco-2 cells, Mab at 2.22E-7 M (human ferroportin 1 [6]): 69.3%
Percentage inhibition of mature hepcidin induced increase in cellular ferritin, Caco-2 cells, Mab at 2.47E-8 M (human ferroportin 1 [6]): 45.3%
Percentage inhibition of mature hepcidin induced increase in cellular ferritin, Caco-2 cells, Mab at 2.7E-9 M (human ferroportin 1 [6]): 34.8%
Percentage inhibition of mature hepcidin induced increase in cellular ferritin, Caco-2 cells, Mab at 3.0E-10 M (human ferroportin 1 [6]): 14.2%
Percentage inhibition of mature hepcidin induced increase in cellular ferritin, Caco-2 cells, Mab at 6.67E-7 M (human ferroportin 1 [6]): 75.2%
Percentage inhibition of mature hepcidin induced increase in cellular ferritin, Caco-2 cells, Mab at 7.4E-8 M (human ferroportin 1 [6]): 61.1%
Percentage inhibition of mature hepcidin induced increase in cellular ferritin, Caco-2 cells, Mab at 8.0E-9 M (human ferroportin 1 [6]): 31.6%
Percentage inhibition of mature hepcidin induced increase in cellular ferritin, Caco-2 cells, Mab at 9.0E-10 M (human ferroportin 1 [6]): 23.3%
binding result (rat ferroportin): no binding
% Inhibition (human ferroportin 1 [12]): 88.4%
% Inhibition (human ferroportin 1 [13]): 81.6%
% Inhibition (human ferroportin 1 [14]): 18.7%
% Inhibition (human ferroportin 1 [15]): 79.9%
% Inhibition (human ferroportin 1 [16]): 32.1%
B2: Mab Combi11 (antibody, human IgG4 S228P, kappa, F234A L235A, V domains shown)
VH: B1 VH with G57R, R58T, E62S
VL: B1 VL with L54R
